Source: PMC3101248

Target: mouse VPS29 (isotopically labelled NMR sample) (mouse)
Experiment: NMR titration; SNX1 titrated into 0.1 mM 15N-labelled VPS29, soFast 15N HMQC, 298 K, 600 MHz; 10 mM HEPES (pH 7.5), 100 mM NaCl, DTT

Kd: > 150 µM
Substance: human SNX1 (recombinant, for NMR titrations) (from UniProt Q13596 1-522) (natural protein)
